From the DeepSol protein solubility set come the findings set out here.

The nature of the data set: soluble on expression in E. coli; label from the status in PepcDB or PDB records.
Consider “MEATQQAERKSMNKSQAFANASHDIRGALAGMKGLIDICRDGVKPGSDVDTTLNQVNVCAKDLVALLNSVLDMSKIESGKMQLVEEDFNLSKLLEDVIDFYHPVAMKKGVDVVLDPHDGSVFKFSNVRGDSGRLKQILNNLVSNAVKFTVDGHIAVRAWAQRPGSNSSVVLASYPKGVSKFVKSMFCKNKEESSTYETEISNSIRNNANTMEFVFEVDDTGKGIPMEMRKSVFENYVQVRETAQGHQGTGLGLGIVQSLVRLMGGEIRITDKAMGEKGTCFQFNVLLTTLESPPVSDMK”, for which the “soluble on expression in E. coli” value is listed as “not soluble”.
Then “GPGSATTVHGETVVNGAKLTVTKNLDLVNSNALIPNTDFTFKIEPDTTVNEDGNKFKGVALNTPMTKVTYTNSDKGGSNTKTAEFDFSEVTFEKPGVYYYKVTEEKIDKVPGVSYDTTSYTVQVHVLWNEEQQKPVATYIVGYKEGSKVPIQFKASLDSTTLTVKKKVSGTGGDRSKDFNFGLTLKANQYYKASEKVMIEKTTKGGQAPVQTEASIDQLYHFTLKDGESIKVTNLPVGVDYVVTEDDYKSEKYTTNVEVSPQDGAVKNIAGNSTEQETSTDKDMTITFTNKKVFE”, with “soluble”; and “MKKLYGVIGNPIGHSMSPDIHNASLKDLGLDGHYHAFKVEENDLEDAVKGIRALGVQGINVTVPHKVSIMDYLDHIDESAKVLGAVNTVRREGDKLVGYNTDGEGFVKSLMKVLDKPISELSFLMIGAGGAARAIFTTFVRNTPKKFDICNRTLEKAKRLTEATPSFHNKEVLSIKEAEERLEQYDVIIHTTSVGMYPNVDDVPLSLQRAASSAVVCDIVYNPIQTALLKEASQKGLKTLDGVGMFVEQAALSFQLWTGQEPNIEKMRSIVIGKLGGTECLEHHHHHH”, with “soluble”; and “AKEKDTIRTEGVVTEALPNATFRVKLDSGPEILAYISGKMRMHYIRILPGDRVVVEITPYDPTRGRIVYRK”, with “soluble”.
In the case of “MTPDVLFESLWQDYIQRLCPSAAKVHQLLQEDEALINDHIALRTFNVEPLGIETLAKPFLAAGYKACGDYVFESKKLVAKHYEHPDPKQPKVFISELKVEECSPDLQDIVAKLASQVDAEKLSGSAFLHGGRLWDLSFADYQTLAKESEYASWLAAHGYGANHFTVSVNQLNQHDEVKQVNDHLRQAGFVINESGGEVKGSPEVLLEQSSTMADKVPVTFEEGLEIIPGGFYEFAKRYPMENGELYPGFVAASADKIFESTNGLEHHHHHH” it was “soluble”.
Then “CIHSLKSEAIFFERTANFDGNTREKIIAMHVGYRIYARMEPVLSTCAIVAKTPWVLEKASPERLNELNRLEEEVISGADALVNNAVECGDLKFSPAIGADAIVFANWSIAFGSNALAQNASNSRCIQRIQDPFSVLHNANMLLDGLGWAPLSTEWDYRKTWRRVEQELFSEEIAYLETVNR”, with “not soluble”; and “MSLNGPLKIGYYKIGAAYRDGKGYDVDMVRELARRLGCPIANETELPRLRALKMLETGQIDVSASTLATPDRLQYAWIYQYNHAKNMVLLNPAIQARTLATLLEDPALRWGAIRGYHHGPSQDKLLEELNARHKVVIANDEDDLYKMLGNGVVTAVFAQPFSYGRWLRELPNPNQIVVLDLYPETDMVASGLALSKARFSREAAEKWHQELLKMYQDGSLYDIMRRYLNESAARQMMQKPIEEGHHHHHH”, with “soluble”; and “GMDDETLRLQFGHLIRILPTLLEFEKKGYEPSLAEIVKASGVSEKTFFMGLKDRLIRAGLVKEETLSYRVKTLKLTEKGRRLAECLEKCRDVLGS”, with “soluble”.
“MGSDKIHHHHHHMEMLFLLKNLYRDPLALSRFSQFRCLHISKGEIIQNLNETHEFQVCFVLKGSLCLFRDHIESMPLMAMQNEFFFISSLHQCKIKAMDEVQLVIHACNIVAPYLHSRTIEYLQDISIEEVKPVEVLPIYPLMRSYLDLLVDYMKNGTEIPDLHRAKEYELFSLFKICYKKNEIASIFRDALSNDLQFFVSVMTHYKACRTAKELAVLCGYNDTVFTQLFKKNFHGDTPYQWLQKQTSYEIEFKLKKSTLPIKQIMLDYHFKTFSHFTTYCKRNIGATPNEIRKKGEESRDTPSLETYSVSAND”: the “soluble on expression in E. coli” value is reported as “not soluble”.
In the case of “EEDWVLPSEVEVLESIYLDELQVIKGNGRTSPWEIYITLHPATAEDQDSQYVCFTLVLQVPAEYPHEVPQISIRNPRGLSDEQIHTILQVLGHVAKAGLGTAMLYELIEKGKEILTDNNIPHGQ” it was “soluble”.
Then “MAPPTTIRTRDQALAPLATLDSQTNCRLKELVQWECQFKGAEYVCSPFKRLFEHCIAPDKSATNYEVTDTYTNS”, with “not soluble”; and “VETISFSFSEFEPGNNDLTLQGAAIITQSGVLQLTKINQNGMPAWDSTGRTLYTKPVHIWDMTTGTVASFETRFSFSIEQPYTRPLPADGLVFFMGPTKSKPAQGYGYLGVFNNSKQDNSYQTLAVEFDTFSNPWDPPQVPHIGIDVNSIRSIKTQPFQLDNGQVANVVIKYDASSKILLAVLVYPSSGAIYTIAEIVDVKQVLPEWVDVGLSGATGAQRDAAETHDVYSWSFHASLPETND”, with “soluble”.
For the sequence “ELKDLQKDEKFWTESSQFKVSVPVGWDINHKEVCFEIGNEQNHTLICGRSGSGKSNFLHVLIQNLAFYYAPNEVQLFLLDYKEGVEFNAYTDPNILEHARLVSVASSVGYGMSFLNWLCKEMQERANLFKQFNVKDLSDYRKHGEIPRLIVVIDEFQVLFSDNKSTKAVEGHLNTLLKKGRSYGVHLILATQTMRGTDINRSIMAQIANRIALSMDAEDSNSILGDDAACELVRPEGIFNNNGGHQKHHTKMSIPKAP”, the “soluble on expression in E. coli” value is “not soluble”.
In the case of “MSIDRTSPLKPVSTVQTRETSDTPVQKTRQEKTSAATSASVTLSDAQAKLMQPGVSDINMERVEALKTAIRNGELKMDTGKIADSLIREAQSYLQSK” it was “not soluble”; in that of “MGHHHHHHSHMFVYLNPNPKNTLRIDAEALTETRRLAARAWDLKYQMTKQGMHQRMLRAELDNLEILERGHSAALTTNLSLLANVLLDQPAPPDPTQGEEKGLPPSSRVESRTEGVYTVTVYPGDPAFEIQDSLPQKIWPMLYLHQQRWLPSYGPWHIRFTSSAMQLRNFPRSLRGQANFQNSMSLKLITALTDVISRISLDFYSDLRHLSDTMSALCLIAAYYSEKNQTPLPTNLPELLGNITAKVTLLVRDLKRAAANKGFNFNRNSSSLLPAQGGLYSNDFFQEHALYSLFRTAGMLASSSSPEYPRADSVLAITAAVFGDNIPPFAAYQWNLRSGLKALESLILLFLLLDVNVPATSNKRLHLEALLGESYSKGSRPPARRTGPLDAGGSVFSFLMENYLVPTLLHRPTTNMSALFPGLYLLQLEFSSGASTPHAIHLTDVKFRDIFNILVQSNVFQDSQELIRAKQSLRVSCETGSGNLLESLSPGTTMRDIIRKEFMAQDVYDYVYFCVLGALPVTVAVV”, “not soluble”.
Regarding “AHHHHHHGSPKKERKVEGEEVIRVPLPEGNQLFGVVEQALGAGWMDVRCEDGKVRRCRIPGRLRRRVWIKVGDLVIVEPWPVQSDKRGDIVYRYTQTQVEWLLRKGKISQEFLTGGSLLLE”, the “soluble on expression in E. coli” value was “not soluble”.
Turning to “MGSDKIHHHHHHMNQSETDMIERIFTATDALMATVGLPNLSMHKIAREAKISPGTIYIYFKNKEELLTQFARYIFQNFQDVLKEGYDERQPFFQQYRKMWWNIWHFLEAEPTIMANMGQYESLPGFSDICQKWESDSIWYHFCVKAKAAGELADVPPPILFAISLESAFNIAFKCRHFCAQVSMEMLEAVIERTWLAIKN”, the “soluble on expression in E. coli” value is “not soluble”.
